This note sets out measurements from paper PMC9242475.

As a reminder, the Kd is the equilibrium constant for the complex coming apart. What is called koff is a measure of how fast the partners let go of each other. Broadly, the kon is the second-order rate constant of association.

The target of assay [1] is HAdV-D37 protein IIIa tagged with C-terminal 3X FLAG (human adenovirus D type 37 (HAdV-D37)). Kind of assay: SPR; BIAcore T200, 25°C, […] (25 mM HEPES, 150 mM NaCl, 0.05% P20, 2 mM DTT, pH 7.4); […]; 1:1 binding model.
The target is the same in assay [2]. Kind of assay: SPR; […] (80 nM or 2.5 nM) […].

Sequence of partial recombinant RANBP2 protein (#ab268915, Abcam) (domain or fragment) (P49792 1346-1815): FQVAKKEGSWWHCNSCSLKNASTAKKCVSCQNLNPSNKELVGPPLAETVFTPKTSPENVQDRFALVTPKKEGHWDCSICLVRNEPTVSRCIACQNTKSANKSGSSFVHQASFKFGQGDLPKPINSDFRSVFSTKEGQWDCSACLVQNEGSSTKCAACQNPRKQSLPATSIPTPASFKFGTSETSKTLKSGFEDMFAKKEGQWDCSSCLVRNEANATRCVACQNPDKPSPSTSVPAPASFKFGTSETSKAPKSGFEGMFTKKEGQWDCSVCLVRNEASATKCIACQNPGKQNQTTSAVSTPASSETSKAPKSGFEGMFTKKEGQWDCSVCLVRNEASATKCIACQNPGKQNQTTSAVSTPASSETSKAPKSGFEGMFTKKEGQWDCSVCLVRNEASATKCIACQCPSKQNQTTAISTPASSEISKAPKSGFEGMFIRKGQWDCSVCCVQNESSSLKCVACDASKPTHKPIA

In assay [1], “partial recombinant RANBP2 protein (#ab268915, Abcam) (domain or fragment)” came in with a Kd of 13.7 nM, a koff of 0.000658 s⁻¹ and a kon of 48000 M⁻¹ s⁻¹. Besides, the Kd in assay [2] was 122 nM.
In assay [1], “recombinant USP9X protein (#ab271784, Abcam) (from UniProt Q93008 1-2554) (enzyme)” registered a Kd of 32 nM, a koff of 0.00119 s⁻¹ and a kon of 37200 M⁻¹ s⁻¹. In assay [2], the Kd is 1.8 nM.
